{"source": "patent US5625031A", "about": "“Peptide inhibitors of the p33^cdk2 and p34^cdc2 cell cycle regulatory kinases and human papillomavirus E7 oncoprotein” (Bristol-Myers Squibb Company, priority 1994, dated 1997)", "key": {"HPV18-E7 protein": {"biological_target": "T1, HPV18-E7 protein (Human papillomavirus type 18, UniProt P06788)", "T1 construct": "made in house", "T1 sequence (P06788 whole entry, the tested form may be a part)": "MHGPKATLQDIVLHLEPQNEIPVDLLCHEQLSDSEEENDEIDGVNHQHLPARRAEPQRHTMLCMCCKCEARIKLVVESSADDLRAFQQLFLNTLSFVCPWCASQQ", "assay": "biochemical", "assay_type": "binding", "details": "E7 type and method not stated", "method": "The association of bacterially expressed HPV18-E7 protein with the p107 30mer peptide was analyzed using an ELISA assay. In the experiment depicted in FIG. 3A, a 96-well cluster plate was coated with p107 30mer peptide and incubated with increasing concentration of a MBP-E7 fusion protein or the MBP protein as a control. […] In the experiment depicted in FIG. 3B, MBP-E7 fusion protein (100 ng) was incubated with a p107 30mer peptide-coated plate in the presence of increasing concentrations of free p107 9mer peptide."}, "E7-Rb complex": {"biological_target": "T2, E7-Rb complex (Human papillomavirus type 18, UniProt P06788)", "T2 construct": "made in house; host or cells: bacteria (MBP-E7); baculovirus system (Rb)", "T2 sequence (P06788 whole entry, one chain of several)": "as the sequence (P06788 whole entry, the tested form may be a part) above", "assay": "ELISA assay of competition for E7-Rb complex formation", "assay_type": "binding", "details": "MBP-E7 coated plate, 100 ng Rb, increasing peptide concentrations", "method": "To examine the effect of p107 peptide binding upon the E7-Rb interaction, an ELISA assay was used to monitor E7-Rb complex formation. 96-well cluster plates were coated with either MBP-E7 protein (O) or MBP alone as a control (.circle-solid.). The plates were incubated with increasing concentrations of baculovirus expressed Rb which was detected with monoclonal antibody αRb349 (Pharmingen, San Diego Calif.) (FIG. 4A). In a separate experiment, 96-well cluster plates were coated with MBP-E7 protein and incubated with 100 ng Rb in the presence of increasing concentrations of p107 9mer peptide (FIG. 4B). Binding is quantitated as an increase in optical density at 405 nm. […] A corresponding peptide from Rb protein (sequence MCSMYGICK [SEQ ID NO: 2]) also binds to the E7 oncoprotein and competes for the E7-Rb interaction."}}, "note": "“Also recorded” adds a separate entry of the source.", "data": [{"sequence": "MCSMYGICK [nine amino acid peptide derived from Rb]", "values": [{"measurement": "binding to the E7 oncoprotein", "setting": "HPV18-E7 protein", "value": "binds"}, {"measurement": "competition for E7 association with Rb", "setting": "E7-Rb complex", "value": "competes; also recorded: inhibits E7 binding to Rb"}]}]}
